Test results published in patent US5677143.

What was measured:
[1] = target: TRP-185 (cellular TAR RNA binding protein, about 185 kD) (Homo sapiens) (UniProt Q13395); experiment: EMSA
[2] = target: Tat (wild-type) (HIV-1) (UniProt P04608); experiment: EMSA; details: printed as Ka of 6.4x10^-10 M; Scatchard, one tat per TAR RNA

Chain of TRP-185 (cellular TAR RNA binding protein, about 185 kD) (Homo sapiens) (Q13395 whole entry): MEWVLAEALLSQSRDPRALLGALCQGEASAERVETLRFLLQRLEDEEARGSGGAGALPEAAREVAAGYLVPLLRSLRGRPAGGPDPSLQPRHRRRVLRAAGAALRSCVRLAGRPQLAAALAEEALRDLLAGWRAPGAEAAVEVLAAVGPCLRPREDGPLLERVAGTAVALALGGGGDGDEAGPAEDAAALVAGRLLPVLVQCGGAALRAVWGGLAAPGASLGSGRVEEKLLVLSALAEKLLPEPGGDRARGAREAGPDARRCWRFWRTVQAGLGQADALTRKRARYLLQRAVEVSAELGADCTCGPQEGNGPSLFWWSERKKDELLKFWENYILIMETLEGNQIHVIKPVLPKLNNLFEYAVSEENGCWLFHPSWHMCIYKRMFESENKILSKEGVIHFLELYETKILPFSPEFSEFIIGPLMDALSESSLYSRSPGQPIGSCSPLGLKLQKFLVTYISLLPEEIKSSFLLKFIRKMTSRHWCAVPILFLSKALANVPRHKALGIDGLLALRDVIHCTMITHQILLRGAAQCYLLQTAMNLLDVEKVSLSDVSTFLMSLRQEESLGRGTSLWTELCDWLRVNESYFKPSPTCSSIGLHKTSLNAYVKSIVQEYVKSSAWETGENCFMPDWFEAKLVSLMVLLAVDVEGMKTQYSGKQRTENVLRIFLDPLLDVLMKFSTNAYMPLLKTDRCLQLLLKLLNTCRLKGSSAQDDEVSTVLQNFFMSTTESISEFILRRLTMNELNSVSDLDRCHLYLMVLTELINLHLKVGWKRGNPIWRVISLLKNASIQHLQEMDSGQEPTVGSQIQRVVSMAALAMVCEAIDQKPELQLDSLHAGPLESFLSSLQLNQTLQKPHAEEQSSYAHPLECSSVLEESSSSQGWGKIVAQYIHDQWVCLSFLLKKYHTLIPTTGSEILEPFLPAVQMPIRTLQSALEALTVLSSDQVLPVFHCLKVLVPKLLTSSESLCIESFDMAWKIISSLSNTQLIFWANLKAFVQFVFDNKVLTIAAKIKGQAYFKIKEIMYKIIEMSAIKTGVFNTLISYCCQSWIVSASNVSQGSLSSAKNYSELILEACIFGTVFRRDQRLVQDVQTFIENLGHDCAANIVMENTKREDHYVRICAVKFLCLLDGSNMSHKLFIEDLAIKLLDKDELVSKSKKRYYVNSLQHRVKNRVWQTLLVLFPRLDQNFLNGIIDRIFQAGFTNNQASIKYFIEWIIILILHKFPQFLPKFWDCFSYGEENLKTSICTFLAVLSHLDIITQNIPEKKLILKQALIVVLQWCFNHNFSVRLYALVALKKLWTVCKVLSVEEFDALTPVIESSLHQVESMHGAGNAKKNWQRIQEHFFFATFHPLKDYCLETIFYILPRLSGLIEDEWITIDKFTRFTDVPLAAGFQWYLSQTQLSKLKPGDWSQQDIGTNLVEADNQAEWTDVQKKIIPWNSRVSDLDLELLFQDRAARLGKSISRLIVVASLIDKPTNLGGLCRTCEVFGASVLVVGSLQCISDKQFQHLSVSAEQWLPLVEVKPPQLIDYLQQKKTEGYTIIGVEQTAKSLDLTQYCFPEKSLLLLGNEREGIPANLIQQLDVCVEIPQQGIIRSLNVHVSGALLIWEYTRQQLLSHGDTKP

Substance: HIV TAR RNA wild-type (+1/+80)
- Kd ([1]; Scatchard, cofactor fraction required with sucrose gradient TRP-185, room temperature, 50 mM KCl): 0.315 nM
- Kd [2]: 0.64 nM

Substance: nonspecific RNA
- Kd ([1]; data not shown): 21100 nM
